Source: the Immune Epitope Database (IEDB)
pKd: −log10 of the molar value.

How the values were obtained:
Settings in all cases: source organism: Lyssavirus rabies
[1] = molecular target: HLA-A*02:01; assay: IEDB peptide-MHC binding, purified MHC/direct/fluorescence; filed as Kd, often an IC50 or EC50 that approximates it; ≥ and ≤ were set here for values at or beyond the usual limits of such assays
[2] = molecular target: HLA-A*02:03; assay: as above
[3] = molecular target: HLA-A*02:06; assay: as above
[4] = molecular target: HLA-A*02:11; assay: as above
[5] = molecular target: HLA-A*02:12; assay: as above
[6] = molecular target: HLA-A*02:19; assay: as above
[7] = molecular target: HLA-A*03:01; assay: as above
[8] = molecular target: HLA-A*23:01; assay: as above
[9] = molecular target: HLA-A*24:03; assay: as above
[10] = molecular target: HLA-A*26:01; assay: as above
[11] = molecular target: HLA-A*29:02; assay: as above
[12] = molecular target: HLA-A*69:01; assay: as above
[13] = molecular target: HLA-B*15:01; assay: as above
[14] = molecular target: HLA-B*15:17; assay: as above
[15] = molecular target: HLA-B*18:01; assay: as above
[16] = molecular target: HLA-B*27:03; assay: as above
[17] = molecular target: HLA-B*39:01; assay: as above
[18] = molecular target: HLA-B*46:01; assay: as above
[19] = molecular target: HLA-B*51:01; assay: as above
[20] = molecular target: HLA-B*57:01; assay: as above
[21] = molecular target: HLA-C*03:03; assay: as above
[22] = molecular target: HLA-A*30:02; assay: IEDB peptide-MHC binding, purified MHC/competitive/fluorescence; filed as Kd, often an IC50 or EC50 that approximates it; ≥ and ≤ were set here for values at or beyond the usual limits of such assays
[23] = molecular target: HLA-B*07:02; assay: as above
[24] = molecular target: HLA-B*44:02; assay: as above
[25] = molecular target: HLA-B*58:01; assay: as above

YLDNVGVHI
pKd [1]: ≤ 4.70
pKd [2]: ≤ 4.70
pKd [3]: 7.44
pKd [4]: ≤ 4.70
pKd [5]: 8.15
pKd [6]: ≤ 4.70
pKd [7]: ≤ 4.70
pKd [8]: ≤ 4.70
pKd [9]: ≤ 4.70
pKd [10]: ≤ 4.70
pKd [11]: ≤ 4.70
pKd [12]: ≤ 4.70
pKd [13]: ≤ 4.70
pKd [14]: ≤ 4.70
pKd [15]: ≤ 4.70
pKd [16]: ≤ 4.70
pKd [17]: ≤ 4.70
pKd [18]: ≤ 4.70
pKd [19]: ≤ 4.70
pKd [20]: ≤ 4.70
pKd [21]: ≤ 4.70
pKd [22]: ≤ 5.30
pKd [23]: ≤ 5.30
pKd [24]: ≤ 5.30
pKd [25]: ≤ 5.30
